Target: T1, C-terminal tail peptide (FITC-SMEAVDSERRPHFPQFSYSASGTA) (human, C460A (from the letters against P31749, from memory; not stated by the paper) …, FITC (fluorescein) on the N-terminus; unphosphorylated)
T1 construct: residues 457 to 480 of human Akt1 (the C-terminal tail residues missing in Akt1^ΔC); The methods call it 'the C-terminal 35 amino acids of Akt1', but the printed peptide has 24 residues; also called fluorescein-labeled peptide (unphosphorylated)
T1 peptide: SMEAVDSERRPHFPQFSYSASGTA
Assay: fluorescence polarisation; fluorescence anisotropy; reverse titration of 200 to 250 µM Akt1^ΔC in buffer with 100 nM fluorescein-labeled peptide; 20 °C, 20 mM Tris pH 8.0, 100 mM NaCl, 1 mM TCEP; one-site binding model; three independent titrations; saturation not reached
Conditions: both partners purified

- Kd: ~500 µM
B1: Akt1 1 to 456 (Akt1^ΔC) (domain or fragment)
chain: MNDVAIVKEGWLHKRGEYIKTWRPRYFLLKNDGTFIGYKERPQDVDQREAPLNNFSVAQCQLMKTERPRPNTFIIRCLQWTTVIERTFHVETPEEREEWTTAIQTVADGLKKQEEEEMDASAEHTDMEVSLAKPKHRVTMNEFEYLKLLGKGTFGKVILVKEKATGRYYAMKILKKEVIVAKDEVAHTLTENRVLQNSRHPFLTALKYSFQTHDRLCFVMEYANGGELFFHLSRERVFSEDRARFYGAEIVSALDYLHSEKNVVYRDLKLENLMLDKDGHIKITDFGLCKEGIKDGATMKTFCGTPEYLAPEVLEDNDYGRAVDWWGLGVVMYEMMCGRLPFYNQDHEKLFELILMEEIRFPRTLGPEAKSLLSGLLKKDPKQRLGGGSEDAKEIMQHRFFAGIVWQHVYEKKLSPPFKPQVTSETDTRYFDEEFTAQMITITPPDQDD
modifications: phosphothreonine at T450 (stoichiometrically monophosphorylated, turn motif)
